What is called Kd is the constant that tells how readily two partners part at equilibrium. Low values mean a tighter complex, high ones a looser complex. The EC50 (read off the curve) is the concentration needed to bring the measured effect to its halfway point. A word on the koff: it is the first-order rate constant of dissociation. Read a low koff as slow dissociation.

Experimental findings from patent US20230151091A1 (NEW YORK UNIVERSITY, published 2023) are described below.

In experiment [1] the target is T1, mFz: Fz domain and C-terminal flanking sequence of mouse MuSK (D307 to T494) with C-terminal Avi- and … (mouse, UniProt Q61006 307-494, limits assumed, biotinylated in vitro using the BirA enzyme).
T1 construct: also called mouse Fz; not shown: Avi- and His6-tags
T1 sequence (looked up): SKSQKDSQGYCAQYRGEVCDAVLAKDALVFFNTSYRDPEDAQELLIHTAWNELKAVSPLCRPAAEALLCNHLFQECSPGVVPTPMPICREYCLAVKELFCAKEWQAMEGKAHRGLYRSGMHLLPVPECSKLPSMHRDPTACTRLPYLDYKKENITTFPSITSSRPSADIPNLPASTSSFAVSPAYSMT
The experiment can be described thus: bead-binding assay, IgG format: biotinylated antigen on streptavidin beads, flow cytometry, 1:1 fit; average ± s.d., n=3. In general terms: A flow cytometer gives signals particle by particle.

Experiment [2] concerns the target T2, hECD: full-length extracellular region of human MuSK (E22 to T495) with C-terminal Avi- and His6-tags (human, UniProt O15146 22-495, biotinylated in vitro using the BirA enzyme).
T2 construct: also called human ECD; not shown: Avi- and His6-tags
T2 sequence: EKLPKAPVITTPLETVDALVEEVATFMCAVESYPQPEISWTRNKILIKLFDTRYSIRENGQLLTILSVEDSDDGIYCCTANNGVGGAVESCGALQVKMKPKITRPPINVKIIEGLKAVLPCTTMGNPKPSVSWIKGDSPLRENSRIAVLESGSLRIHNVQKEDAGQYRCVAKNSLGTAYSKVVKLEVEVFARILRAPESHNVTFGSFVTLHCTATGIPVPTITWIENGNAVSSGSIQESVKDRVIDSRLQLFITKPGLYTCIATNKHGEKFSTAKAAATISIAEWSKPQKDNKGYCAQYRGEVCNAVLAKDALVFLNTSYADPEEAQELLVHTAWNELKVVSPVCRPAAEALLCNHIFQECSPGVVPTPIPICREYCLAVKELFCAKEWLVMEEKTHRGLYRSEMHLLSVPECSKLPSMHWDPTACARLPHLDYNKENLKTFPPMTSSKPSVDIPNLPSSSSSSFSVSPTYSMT
The description is as above.

The target in experiment [3] is T3, mECD: full-length extracellular region of mouse MuSK (E22 to T494) with C-terminal Avi- and His6-tags (mouse, UniProt Q61006 22-494, biotinylated in vitro using the BirA enzyme).
T3 construct: range 22-494; also called mouse ECD; not shown: Avi- and His6-tags
T3 sequence (looked up): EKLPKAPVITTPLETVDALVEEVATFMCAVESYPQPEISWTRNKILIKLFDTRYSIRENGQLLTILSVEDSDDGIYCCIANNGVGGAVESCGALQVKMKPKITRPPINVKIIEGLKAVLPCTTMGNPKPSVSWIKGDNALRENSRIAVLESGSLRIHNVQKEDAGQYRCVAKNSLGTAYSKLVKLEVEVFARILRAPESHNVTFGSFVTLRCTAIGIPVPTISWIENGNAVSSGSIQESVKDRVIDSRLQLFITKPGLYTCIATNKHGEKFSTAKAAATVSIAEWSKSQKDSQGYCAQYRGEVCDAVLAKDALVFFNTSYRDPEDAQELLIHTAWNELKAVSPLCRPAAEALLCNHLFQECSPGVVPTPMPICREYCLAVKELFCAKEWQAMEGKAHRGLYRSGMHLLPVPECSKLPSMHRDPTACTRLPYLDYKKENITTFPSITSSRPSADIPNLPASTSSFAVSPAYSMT
Described as above.

In experiment [4] the target is T4, hFz: Fz domain and C-terminal flanking sequence of human MuSK (K314-T495) with C-terminal Avi- and His6-tags (human, UniProt O15146 314-495, biotinylated in vitro using the BirA enzyme).
T4 construct: also called human Fz; not shown: Avi- and His6-tags
T4 sequence: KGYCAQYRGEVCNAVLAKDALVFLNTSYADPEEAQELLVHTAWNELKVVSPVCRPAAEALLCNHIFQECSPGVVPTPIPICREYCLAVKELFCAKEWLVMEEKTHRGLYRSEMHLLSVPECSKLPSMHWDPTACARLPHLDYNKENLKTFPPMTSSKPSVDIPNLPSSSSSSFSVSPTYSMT
Described as above.

Experiment [5] deals with T1, mFz: Fz domain and C-terminal flanking …. In words: bead-binding titration, IgG format: antigen immobilized on streptavidin beads, MFI by flow cytometry, curve is the 1:1 fit.
The target of experiment [6] is T3, mECD: full-length extracellular region …. The experiment is described as above.
Experiment [7] concerns the target T5, human MuSK (human, UniProt O15146 24-495).
T5 construct: Recombinant protein coated on ELISA plates (R&D Systems cat. 10189-MK) or on the Biacore chip; also called human muscle-specific tyrosine protein kinase; full length human MuSK
T5 sequence: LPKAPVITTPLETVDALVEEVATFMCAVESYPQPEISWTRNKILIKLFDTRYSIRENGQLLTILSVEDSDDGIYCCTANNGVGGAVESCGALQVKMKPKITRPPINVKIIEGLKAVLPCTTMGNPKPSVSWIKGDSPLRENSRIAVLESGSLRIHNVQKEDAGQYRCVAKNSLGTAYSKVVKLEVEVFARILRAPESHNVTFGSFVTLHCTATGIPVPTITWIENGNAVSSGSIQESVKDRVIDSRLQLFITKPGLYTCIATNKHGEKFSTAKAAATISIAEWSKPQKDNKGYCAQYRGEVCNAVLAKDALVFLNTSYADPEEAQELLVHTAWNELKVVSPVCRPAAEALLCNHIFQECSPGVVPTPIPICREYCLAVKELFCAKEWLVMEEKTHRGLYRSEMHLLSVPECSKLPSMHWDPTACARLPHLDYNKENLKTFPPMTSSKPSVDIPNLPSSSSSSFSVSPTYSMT
The experiment can be described thus: Biacore T200, off rate at pH 5.5 against pH 7.4. The protocol: (§1) In order to study pH dependent binding of the antibodies described herein to MuSK, a Biacore T200 was used. Briefly, a CMS chip was coated with human and mouse MuSK (200RU) and 22.2 nM of Fab was applied and kinetic parameters calculated. Association was done at pH7.4, dissociation was done at pH 7.4 and also at pH 5.5. The following Fabs were tested, X2, X2m4, X3, X9, X17, 3B2 and 3B2g2m1 (Table 10 and FIG. 23). […] Binding affinity at pH 5.5 is very low, resulting in a rapid dissociation at endosomal pH allowing 3B2g2m1 to recycle.
Background: SPR reads the build-up and loss of mass on a sensor chip optically.

The target of experiment [8] is T6, mouse MuSK (mouse, UniProt Q61006 22-494, limits assumed).
T6 construct: Coated on ELISA plates or on the Biacore chip; also called full length mouse MuSK; mouse MuSK (in house produced in HEK293 cells)
T6 sequence (looked up): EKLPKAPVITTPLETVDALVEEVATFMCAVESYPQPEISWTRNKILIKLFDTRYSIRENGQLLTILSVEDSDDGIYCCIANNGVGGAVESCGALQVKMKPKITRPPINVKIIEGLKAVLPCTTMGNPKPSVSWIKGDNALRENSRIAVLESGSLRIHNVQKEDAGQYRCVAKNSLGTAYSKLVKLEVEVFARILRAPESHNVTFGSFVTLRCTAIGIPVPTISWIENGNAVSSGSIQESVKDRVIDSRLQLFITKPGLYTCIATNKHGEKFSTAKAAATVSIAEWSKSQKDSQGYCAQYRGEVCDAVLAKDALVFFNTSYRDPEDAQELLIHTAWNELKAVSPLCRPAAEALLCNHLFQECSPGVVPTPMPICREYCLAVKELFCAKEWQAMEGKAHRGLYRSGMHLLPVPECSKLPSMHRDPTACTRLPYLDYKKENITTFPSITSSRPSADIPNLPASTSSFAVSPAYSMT
The experiment can be described thus: Biacore T200, off rate at pH 5.5 against pH 7.4. As for the experimental part: as §1

Experiment [9] concerns the target T5, human MuSK. In words: Biacore T200, MuSK on chip (200RU), 22.2 nM Fab, dissociation pH 5.5. As for the experimental part: as §1
Experiment [10] addresses T6, mouse MuSK. The description is as above. The protocol:
as §1

The target of experiment [11] is T5, human MuSK. In words: Biacore T200, MuSK on chip (200RU), 22.2 nM Fab, dissociation pH 7.4. The protocol: as §1
The target of experiment [12] is T6, mouse MuSK. The description is as above. As for the experimental part: as §1
Experiment [13] has as its target T1, mFz: Fz domain and C-terminal flanking …. In words: bead-binding assay, Fab format: biotinylated antigen on streptavidin beads, flow cytometry, 1:1 fit; average ± s.d., n=3.
In experiment [14] the target is T2, hECD: full-length extracellular region …. Described as above.
The target in experiment [15] is T3, mECD: full-length extracellular region …. The experiment is described as above.
The target of experiment [16] is T4, hFz: Fz domain and C-terminal flanking …. The description is as above.
In experiment [17] the target is T1, mFz: Fz domain and C-terminal flanking …. In words: bead-binding titration, Fab format: antigen immobilized on streptavidin beads, MFI by flow cytometry, curve is the 1:1 fit.
In experiment [18] the target is T4, hFz: Fz domain and C-terminal flanking …. The description is as above.

B1: mIgG2a-X3 (antibody, V domains shown)
VH: EVQLVESGGGLVQPGGSLRLSCAASGFTISSSSIHWVRQAPGKGLEWVASISSSSGYTYYADSVKGRFTISADTSKNTAYLQMNSLRAEDTAVYYCARSWYEMWMSGYFGFDYWGQGTLVTVSS
VL: DIQMTQSPSSLSASVGDRVTITCRASQSVSSAVAWYQQKPGKAPKLLIYSASSLYSGVPSRFSGSRSGTDFTLTISSLQPEDFATYYCQQSSSSLITFGQGTKVEIK
notes: mouse IgG2a format; also called X3 in mouse IgG2a format
For the molecule B1, the Kd in experiment [1] was found to be 0.096 nM; in experiment [2], 0.113 nM; in experiment [3] it was 0.118 nM; in experiment [4], 0.079 nM. In addition, the “EC50 (read off the curve)” value in [5] and in [6] was roughly 0.1 nM in each case.

B2: hIgG1-X2 (antibody, V domains shown)
VH: EVQLVESGGGLVQPGGSLRLSCAASGFTVSSSSIHWVRQAPGKGLEWVASISSSYGSTSYADSVKGRFTISADTSKNTAYLQMNSLRAEDTAVYYCARSEGDRYVSGYMGMDYWGQGTLVTVSS
VL: DIQMTQSPSSLSASVGDRVTITCRASQSVSSAVAWYQQKPGKAPKLLIYSASSLYSGVPSRFSGSRSGTDFTLTISSLQPEDFATYYCQQSGVWLITFGQGTKVEIK
notes: human IgG1 Fc containing LALA mutations; also called hIgG-X2; X2 in the human IgG1 format
As for B2, the dissociation constant Kd in experiment [1] was determined as 0.265 nM; in experiment [2], 0.478 nM; in experiment [3], 0.307 nM; in [4], 0.421 nM. The half-maximal effective concentration (EC50 (read off the curve)) in experiment [5] is roughly 0.3 nM; in experiment [6], roughly 0.4 nM.

B3: X17 Fab (Fab, V domains shown)
VH: EVQLVESGGGLVQPGGSLRLSCAASGFTISYSSIHWVRQAPGKGLEWVASIYSSSGSTYYADSVKGRFTISADTSKNTAYLQMNSLRAEDTAVYYCARGDHGYYVFGYLGMDYWGQGTLVTVSS
VL: DIQMTQSPSSLSASVGDRVTITCRASQSVSSAVAWYQQKPGKAPKLLIYSASSLYSGVPSRFSGSRSGTDFTLTISSLQPEDFATYYCQQSYKPGALITFGQGTKVEIK
notes: Fab format
Turning to B3, the “Ratio pH 5.5/7.4 of off rate” value was 7.7 with human MuSK [7] and 1.7 with mouse MuSK [8]. The koff with human MuSK [9] amounted to 0.00678 s⁻¹; with mouse MuSK [10], 0.002 s⁻¹; in the experiment with human MuSK [11], 0.00088 s⁻¹; in the experiment with mouse MuSK [12], 0.0012 s⁻¹. Moreover, the Kd in [13] amounted to 0.47 nM; in experiment [14], 0.52 nM; in experiment [15], 0.63 nM; in [16], 0.38 nM. Besides, the figures for the “EC50 (read off the curve)” value in experiment [17] and in experiment [18] were roughly 0.3 nM and roughly 0.4 nM, respectively.
